Legend:
[1] = biological target: His6-SUMO-LaM1-LaM8 (llama); experiment: BLI; His-SUMO-tandem nanobody loaded on Ni-NTA biosensors; mCherry or DsRed in solution; 20 mM HEPES pH 7.4, 150 mM NaCl, 0.005% Tween-20; association 600 s, dissociation 600 s; 2:1 heterogeneous ligand fit; DsRed concentration calculated as a monomer
[2] = biological target: His6-SUMO-LaM8-LaM4 (llama); experiment: as above

Sequence of DsRed (Q9U6Y8 whole entry): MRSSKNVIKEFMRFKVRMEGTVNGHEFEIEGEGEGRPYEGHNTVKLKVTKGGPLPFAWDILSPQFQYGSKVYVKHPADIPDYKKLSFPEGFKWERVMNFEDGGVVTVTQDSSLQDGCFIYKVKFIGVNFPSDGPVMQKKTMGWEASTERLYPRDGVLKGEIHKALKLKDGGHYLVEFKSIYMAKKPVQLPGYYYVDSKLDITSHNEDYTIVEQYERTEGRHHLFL

Substance | KD2 [1] [pM] | KD (site 1 of the 2:1 heterogeneous ligand fit) [1] [nM] | kdis1 [1] [s⁻¹] | kdis2 [1] [s⁻¹] | kon2 [1] [M⁻¹ s⁻¹] | kon (site 1 of the 2:1 heterogeneous ligand fit) [1] [M⁻¹ s⁻¹] | KD2 [2] [nM] | KD (site 1 of the 2:1 heterogeneous ligand fit) [2] [nM] | kdis1 [2] [s⁻¹] | kdis2 [2] [s⁻¹] | kon2 [2] [M⁻¹ s⁻¹] | kon (site 1 of the 2:1 heterogeneous ligand fit) [2] [M⁻¹ s⁻¹]
mCherry | < 1 | 1.87 | 0.000552 | < 1e-07 | 46700 | 296000 | 1.29 | 1.38 | 0.000239 | 6.51e-05 | 50600 | 173000
DsRed (from UniProt Q9U6Y8 1-225) (natural protein) |  |  |  |  |  |  | 4.12 | 2.64 | 0.000232 | 8.2e-05 | 19900 | 88100

— article PMC10138814
